Measurements as given in patent US20080104734A1.

Target: SSPG1d peptide (…) (Sclerotinia sclerotiorum)
Assay: phage ELISA during panning of the phage display scFv library

B1: scFv-SSPG1d-peptide (scFv)
scFv: MDIVLTQSPAIMSASPGEKVTMTCSASSSVSYMHWYQQKSSTSPKLWIYDTSKLASGVPGRFSGSGSGNSYSLTISSMEAEDVATYYCFQGSGYPLTFGAGTKLEIKRGAGGSGGGGSGGGGSGGGGSQVQLQQSGAELVRPGSSVKISCKASGYAFSNYWMNWVKQRPGQGLEWIGQIYPGYGDAKYNGKFKGKATLTADISSSTAYMQLSSLTSEDSAVYFCARSSYEANWGQGTLVTVSA
absorbance at 450 nm above background (absorbance (450 nm)): 0.871
